Measurements taken from the supplement of paper PMC12042874.
± gives the uncertainty stated by the source.

Assay: amyloid nucleation score (Sup35N fusion, yeast selection) (log enrichment); library NNK2; higher = more nucleation; inactive = no reads after selection
Method in brief: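 Output and input plasmid inserts were sequenced by Illumina after psi-negative yeast carrying Sup35N fused to peptides of 20 random codons had been induced 24 hours with 100 μM copper sulfate and grown 7 days at 30°C on medium lacking adenine and uracil. The nucleation score is the DiMSum log enrichment of output over input reads, centred on the mode score of non-aggregating sequences. Sequences with under 100 input reads were excluded.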

| Substance | amyloid nucleation score |
| --- | --- |
| RELQNLFPHCILWSIIMKPN | -1.49 ± 1.1 |
| REVDIISHTMGGHRFNRERN | inactive |
| REVQYWARYLSVMQLCFVSS | 2.19 ± 0.13 |
| REVWCRISLKFFYMGDLFVR | 0.008 ± 0.8 |
| REWVRYCRCWSCYYPTFFS | -0.198 ± 0.63 |
| RFAFVRNKTWEQLPMI | inactive |
| RFCHTSRGSGGLGRLCQLAL | 0.157 ± 1 |
| RFDSPG | 0.558 ± 0.4 |
| RFEWVPGLSKGN | inactive |
| RFFSMVTR | 0.025 ± 0.33 |
| RFFYSCQASYPCSMVEMSVC | -0.901 ± 0.44 |
| RFGSADVSITRVDFSS | 0.961 ± 0.15 |
| RFHGTGSQHS | -0.496 ± 0.39 |
| RFIRSWNFCDRD | inactive |
| RFLKNRMLNCKVIGIWWKCY | inactive |
| RFMFGNVKMLCVWAKRMLDI | 3.16 ± 0.12 |
| RFRFYYCLDCSHL | inactive |
| RFRTKLECPYMIS | 0.453 ± 0.35 |
| RFTLIFCGSRESNGG | 6.43 ± 0.065 |
| RFVDEPWNTRDTDFLYV | -0.368 ± 1.1 |
| RFWMNNSLNLCQLILTR | 0.333 ± 0.61 |
| RFYDFLFLFIPSRIELIMFR | -0.729 ± 1.1 |
| RFYIALMDFRSMIFGS | 5.195 ± 0.046 |
| RFYLVIFFVTL | inactive |
| RGALVICCNTLSCGRGRLGD | 10.22 ± 0.074 |

| Substance | amyloid nucleation score |
| --- | --- |
| RGKFHCFL | -0.599 ± 0.41 |
| RGLISSVFVVMFDACGVIRC | 5.605 ± 0.035 |
| RGLRA | -0.213 ± 0.41 |
| RGLRMTRIISFFGIVGL | 8.507 ± 0.026 |
| RGWKSLWRLNFYVWVWHLKD | 2.67 ± 0.09 |
| RHAASVWLKDQDVLYPTMT | 0.995 ± 0.16 |
| RHAHWRVSSMDSVQFMWGE | 3.18 ± 0.12 |
| RHHYHSYGSTLVKVRAGQRC | 4.88 ± 0.077 |
| RHQCIIWDIISLPGIWLCRR | 1.13 ± 0.23 |
| RHVCYGGQYLVANHSGM | -0.267 ± 0.65 |
| RHVYWSRSPPRTYGKEWTKG | 0.647 ± 0.23 |
| RIIGTDLSRLWWIKFKVKRG | -0.091 ± 0.65 |
| RILQSGLGV | 0.336 ± 0.56 |
| RILVTGI | -0.653 ± 0.79 |
| RILWK | inactive |
| RILYMMDFSFGANSIYFYWN | 4.4 ± 0.065 |
| RIRVVPKWSFISNRRNCGKL | 4.25 ± 0.054 |
| RISDDWVYLLCSCKGQGFLW | 0.157 ± 1 |
| RISECAIYARTGSYMSMRRR | 4.08 ± 0.051 |
| RITFVILYDAFGEDMDLVSL | 2.09 ± 0.12 |
| RITVEKHSQCALMLHRQYCV | 1.39 ± 0.16 |
| RIYFGQIRGDW | 4.04 ± 0.12 |
| RKEIRGLTMTRPIVDPMRTK | 0.932 ± 0.81 |
| RKPPMPRFQLDSNRQKG | 0.313 ± 0.64 |
| RKQNTVQWSNHFLHCKMPST | inactive |

| Substance | amyloid nucleation score |
| --- | --- |
| RKVCFLAVKCGGFVCFIVRA | inactive |
| RKVTAVHLRHPP | 2.2 ± 0.15 |
| RLCVILCQVMTWRMAVSILE | 0.228 ± 0.56 |
| RLDLYRNMAMVVWQSIDEPP | 0.574 ± 0.41 |
| RLEPYCILSRV | -1.75 ± 0.48 |
| RLFQE | -0.153 ± 1.1 |
| RLFYRYWCL | -0.797 ± 0.35 |
| RLHGGHLRRM | 0.902 ± 0.21 |
| RLIKTHVVKLFQSRWWVIGD | 0.631 ± 0.51 |
| RLILFAMTVLLASRGYNVRS | 0.402 ± 0.21 |
| RLISYNSCLSWSSWG | 3.48 ± 0.087 |
| RLKTDRLAMIPVRPKRFPGP | 0.191 ± 0.63 |
| RLLDFCQFPVTS | 3.7 ± 0.063 |
| RLLLEDASIVGLIITYYLMF | 0.085 ± 0.8 |
| RLMRAKCMQWVSFQ | -0.034 ± 0.4 |
| RLNHGVSRSYDPPRRWAGSR | 0.07 ± 0.61 |
| RLNLGYYKEAVYN | -1.65 ± 0.63 |
| RLNMYSLSRLVYWAIVMRKM | 0.823 ± 0.25 |
| RLNYA | 0.772 ± 0.81 |
| RLRNLFSYWLSEERSGPDGW | 2.03 ± 0.14 |
| RLSCKED | 0.108 ± 0.61 |
| RLSLGKGAVTDT | 0.837 ± 0.19 |
| RLTLVNRAGCIVCNGQGCLQ | 9.245 ± 0.069 |
| RLVTGGVWMDSDDSYRVIET | -0.032 ± 1.1 |
| RLWCLRSTNEMAVSCYRSWD | 4.47 ± 0.049 |

| Substance | amyloid nucleation score |
| --- | --- |
| RLYIIIRFGIVHVT | -0.078 ± 0.21 |
| RLYNKALYANFKNYSLTCFS | -0.39 ± 0.64 |
| RMCDL | -1.19 ± 0.79 |
| RMFVW | -0.341 ± 0.37 |
| RMFWLIVQLGGSFDRLYGFR | 1.21 ± 0.45 |
| RMGKRNFEQNSANQWVPMNP | 0.691 ± 0.6 |
| RMHWTKTH | -0.311 ± 1.1 |
| RMIYGSRRFDVDIFYFGIRN | 4.24 ± 0.074 |
| RMLLQGVKAVGRGNNGINTV | 0.479 ± 0.8 |
| RMLSLGNYGSNAYICCIVCY | 1.92 ± 0.36 |
| RMNFLA | -0.145 ± 0.5 |
| RMRVIISR | -0.881 ± 0.4 |
| RMSVYNF | -0.177 ± 0.79 |
| RMTEA | 2.32 ± 0.21 |
| RNARDSQYDISGACGLFRDR | -0.287 ± 0.27 |
| RNIRWPAHISAGDKGVSGEF | -0.65 ± 1 |
| RNRCSSDFGSGRINVDGFNM | inactive |
| RNRRVWM | -0.003 ± 0.41 |
| RNSAHNLEMFYRGMWDGMCW | -0.429 ± 0.55 |
| RNSVFPILLAYDASDFVARK | -0.494 ± 0.41 |
| RNYLNMVYGLFFCIHCSCFS | 5.853 ± 0.05 |
| RNYRIETSSNVIKV | 0.292 ± 0.65 |
| RPFLSTEKRSILMCRVVKGM | -0.254 ± 0.37 |
| RPKLGSSVVRHVMFIGWGCG | 0.797 ± 0.43 |
| RPLCLLGRVATSKETSGRRC | 4.34 ± 0.049 |

| Substance | amyloid nucleation score |
| --- | --- |
| RQGPALFSKINIATLKWLSM | 0.511 ± 0.62 |
| RQVAPMHLYIYSACNGAKNR | 7.095 ± 0.062 |
| RRFLYPVGRGICMENADPFG | 1.29 ± 0.44 |
| RRGGDKVIISEHV | -0.757 ± 0.45 |
| RRGSELINYRR | -0.341 ± 0.79 |
| RRIINWPNSGIGIPRSKSMF | inactive |
| RRIKPIVLPTVCFYYVSITS | inactive |
| RRKANRVQFLSEYFLVCFVH | inactive |
| RRLGYPYFTR | -0.743 ± 0.44 |
| RRLYF | -0.561 ± 0.52 |
| RRNNNFLWIDLNLMLPCYDW | 7.75 ± 0.08 |
| RRNTLRYARMKSRYSFAP | -0.674 ± 0.79 |
| RRRCFQLK | 0.294 ± 0.8 |
| RRRIWATM | -0.12 ± 0.31 |
| RRSFTTADTCLLIS | -0.695 ± 0.54 |
| RRSQLRLILTFR | -0.223 ± 0.29 |
| RRVDWDYLPLFMQAAPYSWK | -0.197 ± 0.22 |
| RRVGTC | -0.097 ± 0.74 |
| RRVSAIYYRSLCCLAHYFRL | 0.219 ± 1 |
| RRWQTTS | inactive |
| RRYAKNMFRDLGWPVPTRSD | 3.09 ± 0.11 |
| RRYHRR | 1.42 ± 0.38 |
| RRYKVDYTPSCIESPGVVLA | -1.19 ± 0.78 |
| RSCSMMVVHLYRGYGKFDTP | -0.354 ± 0.76 |
| RSDMCSAMIFWSELVKWQDG | 3.84 ± 0.091 |

| Substance | amyloid nucleation score |
| --- | --- |
| RSDMH | 0.673 ± 0.44 |
| RSDVSLVYNLWALWWAR | 0.906 ± 0.52 |
| RSFRECQDCGMQMFISRRLV | 0.15 ± 0.18 |
| RSFYIAVSYMGCICIMPIRR | 2.89 ± 0.13 |
| RSGLYM | -0.55 ± 0.64 |
| RSILSCEGPDSLLEAFNEQI | 0.625 ± 0.64 |
| RSITGCDWFLH | 0.063 ± 1.1 |
| RSKFLFYIYSGFEIRRKINT | inactive |
| RSLDIARAY | -1.06 ± 0.4 |
| RSNSMMLCFASDIVRFYHMG | 2.71 ± 0.14 |
| RSRARSWFLDKDMLLSKDRA | inactive |
| RSSLMYARIHCGEVRRNFLC | 0.177 ± 0.62 |
| RSSSNWSTSGGILRYVVLPK | -0.151 ± 0.42 |
| RSTISYDSSAQYCGGWLGLW | -0.717 ± 1 |
| RSVRSFCVWKVELFVRSEGM | 2.01 ± 0.15 |
| RSVWNASAFVAIFFRVRSQA | 0.547 ± 0.36 |
| RSYVHYGLLAWCYIRVSWDP | 0.428 ± 0.44 |
| RTCTNYVMINETVVR | inactive |
| RTERSAFLLAPGNGLSRVRR | 0.831 ± 0.4 |
| RTISMYEELVTELRNSVM | -0.283 ± 0.33 |
| RTLGHSLYPIDIYMGSDHLG | inactive |
| RTNFVNGLAVVVRNM | -0.015 ± 0.45 |
| RTPCVHMPHAVSLGLVALLL | -0.318 ± 0.76 |
| RTQSLASQ | 0.144 ± 0.56 |
| RTSKGAA | 1.21 ± 0.45 |

| Substance | amyloid nucleation score |
| --- | --- |
| RTSKPLRRMNQRGLDFACAL | 1.04 ± 0.41 |
| RTSSTR | 0.468 ± 0.28 |
| RTVYFCQN | -1.5 ± 1.1 |
| RTWCPLG | 0.486 ± 0.41 |
| RVDARERNELDGIYFIVGSS | -0.271 ± 1 |
| RVHRLQTEEVMYSSGSK | 4.96 ± 0.065 |
| RVLADVKRYRECQTRCRDAW | 1.04 ± 0.34 |
| RVLTKYMFMILFSSSFSYVR | 0.154 ± 0.5 |
| RVLVVYRSLKVAESLSLTSV | 0.093 ± 0.33 |
| RVMSHT | 0.658 ± 0.51 |
| RVNFSGIDVVRLFHYCFYMK | -1.51 ± 0.76 |
| RVPTSNLWSGNFYTALRVTG | -0.833 ± 0.63 |
| RVPTVLFFLIVDFSCPPFSC | inactive |
| RVRNMS | 0.1 ± 0.32 |
| RVSIVCWIFVDSREHFFSVK | -0.818 ± 0.55 |
| RVSLTIYKC | 3.24 ± 0.12 |
| RVTRG | inactive |
| RVVWWVVGFS | -0.297 ± 0.56 |
| RVYLMLLVQYRTWSYVFVDC | -0.402 ± 0.26 |
| RVYMCCSSYCGNITKVQ | 8.027 ± 0.022 |
| RVYNITILYRCLKRRLS | 0.878 ± 0.57 |
| RWATVLLDPF | -0.299 ± 0.79 |
| RWFIDYHGSVFCFQKYIPPV | -0.526 ± 0.54 |
| RWKTVFRVYVEQKALPDLIC | 5.85 ± 0.087 |
| RWLPSVID | -0.302 ± 0.61 |
